Experimental data published in PMC7022988, “General and Genomic DNA-Binding Specificity for the Thermus thermophilus HB8 Transcription Factor TTHB023”.
Residue numbers refer to the chain shown, from its start.

Experiments:
[1] = molecular target: T1, TTHB023 (PfmR) (Thermus thermophilus HB8) (UniProt Q53WD9); assay: BLI; conditions: BLI: 20 mM Tris-Cl pH 7.7, 100 mM NaCl, 1 mM EDTA, 0.05% Tween 20, 1.4 nM biotin-DNA loaded at 37 °C, 3.7-300 nM protein; EMSA: 1x NEB CutSmart buffer, 55 °C …
T1 sequence: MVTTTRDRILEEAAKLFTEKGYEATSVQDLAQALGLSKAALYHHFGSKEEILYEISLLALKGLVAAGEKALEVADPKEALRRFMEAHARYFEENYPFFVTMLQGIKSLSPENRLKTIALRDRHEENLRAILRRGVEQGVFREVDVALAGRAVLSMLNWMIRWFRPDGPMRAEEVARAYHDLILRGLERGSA

TTHB023 (PfmR) [2] = molecular target: T2, TTHB023 (PfmR) (Thermus thermophilus HB8, UniProt Q53WD9 1-191); assay: BLI; slight effect only at 300 nM, nonspecific; Kd extrapolated; BLI: 20 mM Tris-Cl pH 7.7, 100 mM NaCl, 1 mM EDTA, 0.05% Tween 20, 1.4 nM biotin-DNA loaded at 37 °C, 3.7-300 nM protein; EMSA: 1x NEB CutSmart buffer, 55 °C 20 min, 1 ng DNA in 5 µL, 10% native PAGE; conditions: protein: recombinant; chain copies: 2; label: 5' biotin-dT on strand 2; blunt
T2 sequence: T1 sequence

TTHB023 (PfmR) [3] = molecular target: T2, TTHB023 (PfmR); assay: BLI; printed koff/kon (1.072e-4/2.350e5) does not match printed KD; BLI: 20 mM Tris-Cl pH 7.7, 100 mM NaCl, 1 mM EDTA, 0.05% Tween 20, 1.4 nM biotin-DNA loaded at 37 °C, 3.7-300 nM protein; EMSA: 1x NEB CutSmart buffer, 55 °C 20 min, 1 ng DNA in 5 µL, 10% native PAGE; conditions: protein: recombinant; chain copies: 2; label: 5' biotin-dT on strand 2; blunt
TTHB023 (PfmR) [4] = molecular target: T2, TTHB023 (PfmR); assay: BLI; BLI: 20 mM Tris-Cl pH 7.7, 100 mM NaCl, 1 mM EDTA, 0.05% Tween 20, 1.4 nM biotin-DNA loaded at 37 °C, 3.7-300 nM protein; EMSA: 1x NEB CutSmart buffer, 55 °C 20 min, 1 ng DNA in 5 µL, 10% native PAGE; conditions: protein: recombinant; chain copies: 2; label: 5' biotin-dT on strand 2; blunt

Molecule “CTAGGAATTCGTGCAGAGGTGAATCTGACCGATCGGTCAGTTACCATCCCTCCAGAAGCTTGGACA (double strand) [ST2_B023_R6_wt consensus (BLI probe)]” has a Kd [1] of 2.1 nM.

B1: REPSAis control (dsDNA)
DNA 1: CTAGGAATTCGTGCAGAGGTGAATCGTCATAGAATTCGTTACCATCCCTCCAGAAGCTTGGACA
DNA 2: TGTCCAAGCTTCTGGAGGGATGGTAACGAATTCTATGACGATTCACCTCTGCACGAATTCCTAG
In the case of B1, the Kd (TTHB023 (PfmR) [2]) is reported as 138000 nM.

B2: m1 (dsDNA)
DNA 1: CTAGGAATTCGTGCAGAGGTGAATGTGACCGATCGGTCAGTTACCATCCCTCCAGAAGCTTGGACA
DNA 2: TGTCCAAGCTTCTGGAGGGATGGTAACTGACCGATCGGTCACATTCACCTCTGCACGAATTCCTAG
B2 was tested, and the Kd (TTHB023 (PfmR) [3]) was 4.56 nM.

B3: m6 (dsDNA)
DNA 1: B2 DNA 1 with G25C, C30G
DNA 2: B2 DNA 2 with G37C, C42G
With B3 the Kd (TTHB023 (PfmR) [4]) was 279 nM.

B4: m7 (dsDNA)
DNA 1: B2 DNA 1 with G25C, G31C
DNA 2: B2 DNA 2 with C36G, C42G
With B4 the Kd (TTHB023 (PfmR) [4]) was 205 nM.

B5: m8 (dsDNA)
DNA 1: B2 DNA 1 with G25C, A32C
DNA 2: B2 DNA 2 with T35G, C42G
Molecule B5 has a Kd (TTHB023 (PfmR) [4]) of 59.5 nM.

B6: m2 (dsDNA)
DNA 1: B2 DNA 1 with G25C, T26G
DNA 2: B2 DNA 2 with A41C, C42G
Work on B6 yielded a Kd (TTHB023 (PfmR) [4]) of 23 nM.

B7: m4 (dsDNA)
DNA 1: B2 DNA 1 with G25C, A28C
DNA 2: B2 DNA 2 with T39G, C42G
With B7 the Kd (TTHB023 (PfmR) [4]) was 27.8 nM.

B8: m5 (dsDNA)
DNA 1: B2 DNA 1 with G25C, C29T
DNA 2: B2 DNA 2 with G38A, C42G
B8 was tested, and the Kd (TTHB023 (PfmR) [4]) was 53.1 nM.

B9: m3 (dsDNA)
DNA 1: B2 DNA 1 with G25C, G27C
DNA 2: B2 DNA 2 with C40G, C42G
Molecule B9 has a Kd (TTHB023 (PfmR) [4]) of 6.62 nM.
